Test results: patent US20060241051A1 (Takeda / Millennium, published 2006)
Read-outs that look alike come from different tables or passages of the source. Numbered stars: 1 amine (or outer) side, 2 acyl side, 3 side chain; on linkers, the order of the positions; unused ones are H or OH. Square brackets hold non-standard residues; d marks the D form. Ends that are not written are not given here. * marks the point of attachment. Ala(2-Qui) = 2-quinolylalanine, O=C([C@H](Cc1ccc2ccccc2n1)N[*:1])[*:2]; Tyr(Me) = O-methyltyrosine, COc1ccc(C[C@H](N[*:1])C(=O)[*:2])cc1; Propanoyl(3-indol-3-yl) = O=C(CCc1c[nH]c2ccccc12)*; Phe(F5) = N[C@@H](Cc1c(F)c(F)c(F)c(F)c1F)C(=O)O; Arg(Me) = CNC(=N)NCCC[C@H](N)C(=O)O; Fmoc = O=C(OCC1c2ccccc2-c2ccccc21)*; Cha = N[C@@H](CC1CCCCC1)C(=O)O; azaGly = NNC(=O)O

B1: Compound No. 17: [Pya(4)10]MS10 (peptide)
peptide: YNWNSFGLRX
modifications: Pya(4)10; C-terminal amide
B2: Compound No. 105: [Nle8]MS10 (peptide)
peptide: YNWNSFGXRF
modifications: Nle8; C-terminal amide
B3: Compound No. 203: [D-Tyr1,Cha6,Arg(Me)9]MS10 (peptide)
peptide: YNWNSXGLRF
modifications: D-Tyr1; Cha6; Arg(Me)9; C-terminal amide
notes: printed structure is the same as that of Compound No. 172
B4: Compound No. 201: [Ala(2-Qui)10]MS10 (peptide)
peptide: YNWNSFGLR[Ala(2-Qui)]-NH2
modifications: N-terminus assumed
SMILES: CC(C)C[C@H](NC(=O)CNC(=O)[C@H](Cc1ccccc1)NC(=O)[C@H](CO)NC(=O)[C@H](CC(N)=O)NC(=O)[C@H](Cc1c[nH]c2ccccc12)NC(=O)[C@H](CC(N)=O)NC(=O)[C@@H](N)Cc1ccc(O)cc1)C(=O)N[C@@H](CCCNC(=N)N)C(=O)N[C@@H](Cc1ccc2ccccc2n1)C(N)=O
B5: Compound No. 224: des(1)-[D-Tyr2,D-Trp3,Arg(Me)9]MS10 (peptide)
peptide: [dY][dW]NSFGL[Arg(Me)]F-NH2
modifications: N-terminus assumed
SMILES: CNC(=N)NCCC[C@H](NC(=O)[C@H](CC(C)C)NC(=O)CNC(=O)[C@H](Cc1ccccc1)NC(=O)[C@H](CO)NC(=O)[C@H](CC(N)=O)NC(=O)[C@@H](Cc1c[nH]c2ccccc12)NC(=O)[C@H](N)Cc1ccc(O)cc1)C(=O)N[C@@H](Cc1ccccc1)C(N)=O
B6: Compound No. 114: des(1-3)-3-(3-Indolyl)propionyl-MS10 (peptide)
peptide: {Propanoyl(3-indol-3-yl)}-NSFGLRF-NH2
SMILES: CC(C)C[C@H](NC(=O)CNC(=O)[C@H](Cc1ccccc1)NC(=O)[C@H](CO)NC(=O)[C@H](CC(N)=O)NC(=O)CCc1c[nH]c2ccccc12)C(=O)N[C@@H](CCCNC(=N)N)C(=O)N[C@@H](Cc1ccccc1)C(N)=O
B7: Compound No. 217: des(1)-[D-Tyr2,Arg(Me)9]MS10 (peptide)
peptide: [dY]WNSFGL[Arg(Me)]F-NH2
B8: Compound No. 216: des(1)-[D-Asn2,Arg(Me)9]MS10 (peptide)
peptide: [dN]WNSFGL[Arg(Me)]F-NH2
B9: Compound No. 241: des(1)-[D-Tyr2,Thr3,AzaGly7,Arg(Me)9]MS10 (peptide)
peptide: [dY]TNSF[azaGly]L[Arg(Me)]F-NH2
B10: Compound No. 228: des(1)-[D-Tyr2,Ile3,Arg(Me)9]MS10 (peptide)
peptide: [dY]INSFGL[Arg(Me)]F-NH2
B11: Compound No. 97: [Har9]MS10 (peptide)
peptide: YNWNSFGLXF
modifications: Har9; C-terminal amide
B12: Compound No. 45: [Ala8]MS10 (peptide)
peptide: YNWNSFGARF-NH2
B13: Compound No. 237: [D-Tyr1,D-Asn2,AZaGly7,Arg(Me)9]MS10 (peptide)
peptide: [dY][dN]WNSF[azaGly]LR(Me)F-NH2
B14: Compound No. 110: [Nal(2)10]MS10 (peptide)
peptide: YNWNSFGLRX
modifications: Nal(2)10; C-terminal amide
B15: Compound No. 222: des(1)-[D-Tyr2,AzaGly7,Arg(Me)9]MS10 (peptide)
peptide: [dY]WNSF[azaGly]L[Arg(Me)]F-NH2
B16: Compound No. 18: [Tyr(Me)10]MS10 (peptide)
peptide: YNWNSFGLR[Tyr(Me)]-NH2
B17: Compound No. 109: [Tyr10]MS10 (peptide)
peptide: YNWNSFGLRY-NH2
B18: Compound No. 50: [Ala7]MS10 (peptide)
peptide: YNWNSFALRF-NH2
B19: Compound No. 234: [D-Tyr1,Val3,AzaGly7,Arg(Me)9]MS10 (peptide)
peptide: [dY]NVNSF[azaGly]L[Arg(Me)]F-NH2
modifications: N-terminus assumed
SMILES: CNC(=N)NCCC[C@H](NC(=O)[C@H](CC(C)C)NC(=O)NNC(=O)[C@H](Cc1ccccc1)NC(=O)[C@H](CO)NC(=O)[C@H](CC(N)=O)NC(=O)[C@@H](NC(=O)[C@H](CC(N)=O)NC(=O)[C@H](N)Cc1ccc(O)cc1)C(C)C)C(=O)N[C@@H](Cc1ccccc1)C(N)=O
B20: Compound No. 235: [D-Tyr1,Ala3,AzaGly7,Arg(Me)9]MS10 (peptide)
peptide: [dY]NANSF[azaGly]L[Arg(Me)]F-NH2
modifications: N-terminus assumed
SMILES: CNC(=N)NCCC[C@H](NC(=O)[C@H](CC(C)C)NC(=O)NNC(=O)[C@H](Cc1ccccc1)NC(=O)[C@H](CO)NC(=O)[C@H](CC(N)=O)NC(=O)[C@H](C)NC(=O)[C@H](CC(N)=O)NC(=O)[C@H](N)Cc1ccc(O)cc1)C(=O)N[C@@H](Cc1ccccc1)C(N)=O
B21: Compound No. 75: [Asp1]MS10 (peptide)
peptide: DNWNSFGLRF-NH2
B22: Compound No. 101: [Ser7]MS10 (peptide)
peptide: YNWNSFSLRF-NH2
B23: Compound No. 233: [D-Tyr1,Ile3,AzaGly7,Arg(Me)9]MS10 (peptide)
peptide: [dY]NINSF[azaGly]L[Arg(Me)]F-NH2
modifications: N-terminus assumed
SMILES: CC[C@H](C)[C@H](NC(=O)[C@H](CC(N)=O)NC(=O)[C@H](N)Cc1ccc(O)cc1)C(=O)N[C@@H](CC(N)=O)C(=O)N[C@@H](CO)C(=O)N[C@@H](Cc1ccccc1)C(=O)NNC(=O)N[C@@H](CC(C)C)C(=O)N[C@@H](CCCNC(=N)NC)C(=O)N[C@@H](Cc1ccccc1)C(N)=O
B24: Compound No. 24: [Leu5]MS10 (peptide)
peptide: YNWNLFGLRF-NH2
B25: Compound No. 111: [Phe(F5)10]MS10 (peptide)
peptide: YNWNSFGLR[Phe(F5)]-NH2
B26: Compound No. 32: Leu-Pro-Asn-MS10 (peptide)
peptide: LPNYNWNSFGLRF-NH2
B27: Compound No. 53: des(1-3)-Fmoc-MS10 (peptide)
peptide: Fmoc-NSFGLRF-NH2
B28: Compound No. 42: [D-Tyr1]MS10 (peptide)
peptide: [dY]NWNSFGLRF-NH2
B29: Compound No. 55: des(1)-Fmoc-MS10 (peptide)
peptide: Fmoc-NWNSFGLRF-NH2
B30: Compound No. 40: [D-Trp3]MS10 (peptide)
peptide: YN[dW]NSFGLRF-NH2
B31: Compound No. 112: [Cha10]MS10 (peptide)
peptide: YNWNSFGLRX
modifications: Cha10; C-terminal amide
B32: Compound No. 1: Metastin (peptide)
peptide: GTSLSPPPESSGSRQQPGLSAPHSRQIPAPQGAVLVQREKDLPNYNWNSFGLRF
B33: Compound No. 232: [D-Tyr1,AzaGly7,Arg(Me)9]MS10 (peptide)
peptide: [dY]NWNSF[azaGly]LR(Me)F-NH2
B34: Compound No. 274: des(1-2)-Acetyl-[Ala3,AzaGly7,Arg(Me)9]MS10 (peptide)
peptide: Ac-ANSF[azaGly]L[Arg(Me)]F-NH2
SMILES: CNC(=N)NCCC[C@H](NC(=O)[C@H](CC(C)C)NC(=O)NNC(=O)[C@H](Cc1ccccc1)NC(=O)[C@H](CO)NC(=O)[C@H](CC(N)=O)NC(=O)[C@H](C)NC(C)=O)C(=O)N[C@@H](Cc1ccccc1)C(N)=O
B35: Compound No. 54: des(1-2)-Fmoc-MS10 (peptide)
peptide: Fmoc-WNSFGLRF-NH2
SMILES: CC(C)C[C@H](NC(=O)CNC(=O)[C@H](Cc1ccccc1)NC(=O)[C@H](CO)NC(=O)[C@H](CC(N)=O)NC(=O)[C@H](Cc1c[nH]c2ccccc12)NC(=O)OCC1c2ccccc2-c2ccccc21)C(=O)N[C@@H](CCCNC(=N)N)C(=O)N[C@@H](Cc1ccccc1)C(N)=O
B36: Compound No. 315: des(1)-[D-Asn2,Cha3,AzaGly7,Arg(Me)9]MS10 (peptide)
peptide: [dN][Cha]NSF[azaGly]L[Arg(Me)]F-NH2
modifications: N-terminus assumed
SMILES: CNC(=N)NCCC[C@H](NC(=O)[C@H](CC(C)C)NC(=O)NNC(=O)[C@H](Cc1ccccc1)NC(=O)[C@H](CO)NC(=O)[C@H](CC(N)=O)NC(=O)[C@H](CC1CCCCC1)NC(=O)[C@H](N)CC(N)=O)C(=O)N[C@@H](Cc1ccccc1)C(N)=O

Tests used:
[1] = target: T1, human OT7T175 (metastin receptor) (human, UniProt Q969F8 1-398); assay: FMAT competition with Cy-5-labeled metastin (40-54), hOT7T175-expressed CHO cells
T1 construct: expressed on CHO cells (hOT7T175-expressed CHO cells; hOT7T175/CHO); also called hOT7T175; h0T7T175

[2] = target: T1, human OT7T175 (metastin receptor); assay: cell-based or functional assay
[3] = target: T1, human OT7T175 (metastin receptor); assay: cell-based or functional assay; remark: listed apart in the source
[4] = target: human OT7T175 (metastin receptor) (human) (UniProt Q969F8); assay: cell-based or functional assay
human OT7T175 (metastin receptor) (human), sequence (Q969F8 whole entry L364H): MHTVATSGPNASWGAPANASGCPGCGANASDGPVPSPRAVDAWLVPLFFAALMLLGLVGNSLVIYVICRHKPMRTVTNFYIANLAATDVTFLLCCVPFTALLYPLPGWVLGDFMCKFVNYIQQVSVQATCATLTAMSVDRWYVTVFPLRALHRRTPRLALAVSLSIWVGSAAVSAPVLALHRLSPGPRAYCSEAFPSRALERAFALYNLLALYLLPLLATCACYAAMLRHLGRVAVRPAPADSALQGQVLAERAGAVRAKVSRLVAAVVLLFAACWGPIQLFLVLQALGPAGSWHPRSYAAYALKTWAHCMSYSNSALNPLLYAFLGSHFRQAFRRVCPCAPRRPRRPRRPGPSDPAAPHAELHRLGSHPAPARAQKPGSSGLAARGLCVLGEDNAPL

T1 sequence (Q969F8 whole entry L364H): as above

| Binder | IC50 [1] | intracellular Ca ion level-increasing activity (FLIPR) [2] | intracellular Ca ion level-increasing activity (FLIPR) [3] | intracellular Ca ion level-increasing activity (FLIPR) (specific activity to metastin (1-54)) [4] |
| --- | --- | --- | --- | --- |
| B1 | 0.0066 nM | 5 specific activity to metastin (1-54) |  |  |
| B2 | 880 nM | 1 specific activity to metastin (1-54) |  |  |
| B3 | 37 nM |  | 10 specific activity to metastin (1-54) |  |
| B4 | 820 nM |  | 1 specific activity to metastin (1-54) |  |
| B5 | 140 nM |  | 2 specific activity to metastin (1-54) |  |
| B6 | 550 nM | 3 specific activity to metastin (1-54) |  |  |
| B7 | 250 nM |  | 20 specific activity to metastin (1-54) |  |
| B8 | 700 nM |  | 1 specific activity to metastin (1-54) |  |
| B9 | 56 nM |  | 1 specific activity to metastin (1-54) |  |
| B10 | 40 nM |  | 5 specific activity to metastin (1-54) |  |
| B11 | 370 nM | 10 specific activity to metastin (1-54) |  |  |
| B12 |  |  |  | 1 |
| B13 | 27 nM |  | 3 specific activity to metastin (1-54) |  |
| B14 | 24 nM | 20 specific activity to metastin (1-54) |  |  |
| B15 | 33 nM |  | 5 specific activity to metastin (1-54) |  |
| B16 | 7.7 nM | 1 specific activity to metastin (1-54) |  |  |
| B17 | 23 nM | 20 specific activity to metastin (1-54) |  |  |
| B18 | 190 nM | 30 specific activity to metastin (1-54) |  |  |

| Binder | IC50 [1] | intracellular Ca ion level-increasing activity (FLIPR) [2] | intracellular Ca ion level-increasing activity (FLIPR) [3] | intracellular Ca ion level-increasing activity (FLIPR) (specific activity to metastin (1-54)) [4] |
| --- | --- | --- | --- | --- |
| B19 | 47 nM |  | 1 specific activity to metastin (1-54) |  |
| B20 | 100 nM |  | 1 specific activity to metastin (1-54) |  |
| B21 | 880 nM | 1 specific activity to metastin (1-54) |  |  |
| B22 | 100 nM | 10 specific activity to metastin (1-54) |  |  |
| B23 | 23 nM |  | 1 specific activity to metastin (1-54) |  |
| B24 | 0.83 nM | 1 specific activity to metastin (1-54) |  |  |
| B25 | 140 nM | 3 specific activity to metastin (1-54) |  |  |
| B26 | 25 nM | 10 specific activity to metastin (1-54) |  |  |
| B27 |  | 1 specific activity to metastin (1-54) |  |  |
| B28 |  | 30 specific activity to metastin (1-54) |  |  |
| B29 |  | 5 specific activity to metastin (1-54) |  |  |
| B30 |  | 30 specific activity to metastin (1-54) |  |  |
| B31 | 370 nM | 2 specific activity to metastin (1-54) |  |  |
| B32 |  | 1 specific activity to metastin (1-54) |  |  |
| B33 | 49 nM |  | 3 specific activity to metastin (1-54) |  |
| B34 |  |  |  | 1 |
| B35 | 450 nM | 5 specific activity to metastin (1-54) |  |  |
| B36 |  |  |  | 1 |
